Molecular target: the molecule itself
Assay: Western blot (8% SDS-PAGE, goat anti-human OPCML) of Ni-NTA purified protein; self-association
Method: Samples were separated on an 8% SDS-PAGE gel, transferred to a nitrocellulose or polyvinylidene fluoride (PVDF) membrane (Millipore Corporation), blocked, and incubated with polyclonal goat anti-human OBCAM (OPCML; R&D Systems) as a primary antibody, diluted 1:1000, at 4° C. overnight. After washing, the membrane was incubated with HRP-labeled anti-goat as the secondary antibody, diluted 1:5000. After final washings, proteins were detected using Immobilon Western Chemiluminescent HRP substrate system (Millipore) and GE Healthcare Amersham “Hyperfilm” ECL film with a Kodak SRX2000 (Rochester, NY, USA) developer machine.

B1: rOPCML-Fc protein (PYTX-004 construct) (Fc fusion)
chain: ATFPKAMDNVTVRQGESATLRCTIDDRVTRVAWLNRSTILYAGNDKWSIDPRVIILVNTPTQYSIMIQNVDVYDEGPYTCSVQTDNHPKTSRVHLIVQVPPQIMNISSDITVNEGSSVTLLCLAIGRPEPTVTWRHLSVKEGQGFVSEDEYLEISDIKRDQSGEYECSALNDVAAPDVRKVKITVNYPPYISKAKNTGVSVGQKGILSCEASAVPMAEFQWFKEETRLATGLDGMRIENKGRMSTLTFFNVSEKDYGNYTCVATNKLGNTNASITLYGPGGGGLEVLFQGPGGSTKGPSVFLFPPKPKDTLMISRTPEVTCVVVDVSHEDPEVKFNWYVDGVEVHNAKTKPREEQYNSTYRVVSVLTVLHQDWLNGKEYKCKVSNKALPAPIEKTISKAKGQPREPQVYTLPPSRDELTKNQVSLTCLVKGFYPSDIAVEWESNGQPENNYKTTPPVLDSDGSFFLYSKLTVDKSRWQQGNVFSCSVMHEALHNHYTQKSLSLSPGKRTGHHHHHH
notes: Expressed in HEK-293 clone 18G9 and purified on Ni-NTA; After purification it reports a 160 kDa form and an 80 kDa monomer; also called rOPCML-Fc PYTX-004; OPCML-Fc PYTX-004
binding result: binds
